Assays:
Assay in all cases: cell-based or functional assay
[1] = molecular target: human Nav1.7 voltage-gated sodium channel (human) (UniProt Q15858)
[2] = molecular target: human Nav1.5 voltage-gated sodium channel (human) (UniProt Q14524)
[3] = molecular target: human Nav1.3 voltage-gated sodium channel (human) (UniProt Q9NY46)
[4] = molecular target: human voltage-gated sodium channel Nav1.7 (human) (UniProt Q15858)
[5] = molecular target: human voltage-gated sodium channel Nav1.5 (human) (UniProt Q14524)
human voltage-gated sodium channel Nav1.5 (human), sequence (Q14524 whole entry): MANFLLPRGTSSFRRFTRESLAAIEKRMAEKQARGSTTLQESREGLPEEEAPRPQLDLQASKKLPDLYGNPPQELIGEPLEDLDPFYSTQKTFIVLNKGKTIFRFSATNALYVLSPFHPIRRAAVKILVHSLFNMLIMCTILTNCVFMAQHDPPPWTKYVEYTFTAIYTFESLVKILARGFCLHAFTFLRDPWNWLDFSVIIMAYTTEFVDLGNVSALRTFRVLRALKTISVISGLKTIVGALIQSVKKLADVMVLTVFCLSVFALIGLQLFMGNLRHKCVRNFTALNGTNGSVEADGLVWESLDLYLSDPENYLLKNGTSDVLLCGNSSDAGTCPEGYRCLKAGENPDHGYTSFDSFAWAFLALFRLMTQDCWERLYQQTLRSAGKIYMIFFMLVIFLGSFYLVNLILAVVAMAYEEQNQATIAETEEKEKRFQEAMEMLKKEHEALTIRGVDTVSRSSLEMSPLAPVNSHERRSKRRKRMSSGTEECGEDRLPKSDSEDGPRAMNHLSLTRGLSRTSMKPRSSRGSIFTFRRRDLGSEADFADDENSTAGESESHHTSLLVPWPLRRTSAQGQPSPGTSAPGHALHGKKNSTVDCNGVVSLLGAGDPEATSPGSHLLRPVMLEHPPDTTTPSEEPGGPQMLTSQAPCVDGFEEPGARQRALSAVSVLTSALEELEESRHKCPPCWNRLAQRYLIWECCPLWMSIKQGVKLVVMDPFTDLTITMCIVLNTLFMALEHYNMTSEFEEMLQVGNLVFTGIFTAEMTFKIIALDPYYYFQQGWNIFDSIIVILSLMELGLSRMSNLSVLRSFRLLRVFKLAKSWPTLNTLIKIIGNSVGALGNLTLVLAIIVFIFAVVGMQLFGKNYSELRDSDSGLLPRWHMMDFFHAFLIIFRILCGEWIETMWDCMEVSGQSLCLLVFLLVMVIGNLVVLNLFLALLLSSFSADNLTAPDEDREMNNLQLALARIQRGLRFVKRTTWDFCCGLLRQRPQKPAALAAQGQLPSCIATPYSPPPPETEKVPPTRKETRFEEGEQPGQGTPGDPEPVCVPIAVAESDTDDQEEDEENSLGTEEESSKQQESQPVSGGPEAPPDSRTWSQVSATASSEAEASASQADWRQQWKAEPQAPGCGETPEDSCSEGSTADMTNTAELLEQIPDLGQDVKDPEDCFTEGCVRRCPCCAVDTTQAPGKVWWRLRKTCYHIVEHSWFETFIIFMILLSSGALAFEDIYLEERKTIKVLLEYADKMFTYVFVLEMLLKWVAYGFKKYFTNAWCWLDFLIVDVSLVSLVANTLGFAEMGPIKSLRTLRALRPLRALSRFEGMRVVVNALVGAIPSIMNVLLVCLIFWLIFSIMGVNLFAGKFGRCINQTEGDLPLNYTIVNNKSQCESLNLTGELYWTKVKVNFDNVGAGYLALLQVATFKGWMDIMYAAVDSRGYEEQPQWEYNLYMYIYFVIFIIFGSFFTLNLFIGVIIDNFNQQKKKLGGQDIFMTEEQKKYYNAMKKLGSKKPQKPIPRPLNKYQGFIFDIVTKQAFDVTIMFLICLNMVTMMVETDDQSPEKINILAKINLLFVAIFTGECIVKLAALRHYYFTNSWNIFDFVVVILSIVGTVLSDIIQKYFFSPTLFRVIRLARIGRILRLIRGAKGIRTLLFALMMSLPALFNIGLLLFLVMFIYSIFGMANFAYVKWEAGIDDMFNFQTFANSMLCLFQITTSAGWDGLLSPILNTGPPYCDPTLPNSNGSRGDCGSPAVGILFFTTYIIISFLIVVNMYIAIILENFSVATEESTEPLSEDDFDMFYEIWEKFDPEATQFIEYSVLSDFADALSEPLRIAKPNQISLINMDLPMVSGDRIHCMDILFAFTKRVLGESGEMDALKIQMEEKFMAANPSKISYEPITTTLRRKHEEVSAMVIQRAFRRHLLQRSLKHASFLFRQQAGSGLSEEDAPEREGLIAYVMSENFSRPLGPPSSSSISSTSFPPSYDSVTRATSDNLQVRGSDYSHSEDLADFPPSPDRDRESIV

[6] = molecular target: human voltage-gated sodium channel Nav1.7 (human) (UniProt Q15858); remark: listed apart in the source
[7] = molecular target: human voltage-gated sodium channel Nav1.5 (human) (UniProt Q14524); remark: listed apart in the source
[8] = molecular target: human voltage-gated sodium channel Nav1.3 (human) (UniProt Q9NY46)
[9] = molecular target: human voltage-gated sodium channel Nav1.4 (human) (UniProt P35499)

human Nav1.5 voltage-gated sodium channel (human), sequence (Q14524 whole entry): as above

In the case of “4-Pen-[2-Abu5,13;Leu6;Arg28]GpTx-1(1-34) (peptide)”, the IWQ Use Nav1.7 IC50 (IonWorks Quattro electrophysiology) [1] is reported as 0.54 µM, the IWQ Use Nav1.5 IC50 (IonWorks Quattro electrophysiology) [2] is reported as 36.8 µM and the IWQ Use Nav1.3 IC50 (IonWorks Quattro electrophysiology) [3] is reported as 0.9 µM. The Nav1.7 Use IC50 (µM), electrophysiology by PatchXpress [4] was 0.003 µM and the Nav1.5 Use IC50 (µM), electrophysiology by PatchXpress [5] was > 10 µM.

“4-Pen-[Ala5;Phe6;2-Abu13;Arg28]GpTx-1(1-34) (peptide)” gave an IWQ Use Nav1.7 IC50 (IonWorks Quattro electrophysiology) [6] of 0.18 µM, an IWQ Use Nav1.5 IC50 (IonWorks Quattro electrophysiology) [7] of 44.4 µM and an IWQ Use Nav1.3 IC50 (IonWorks Quattro electrophysiology) [8] of 0.26 µM. For the same substance, the Nav1.7 Use IC50 (µM), electrophysiology by PatchXpress [4] was 0.004 µM and the Nav1.5 Use IC50 (µM), electrophysiology by PatchXpress [5] was > 10 µM.

Substance “4-Pen-[Nva5;Leu6;2-Abu13;Arg28]GpTx-1(1-34) (peptide)” has an IWQ Use Nav1.7 IC50 (IonWorks Quattro electrophysiology) [6] of 0.1 µM, an IWQ Use Nav1.5 IC50 (IonWorks Quattro electrophysiology) [7] of 46.2 µM and an IWQ Use Nav1.3 IC50 (IonWorks Quattro electrophysiology) [8] of 0.23 µM.

With “((2-Hydroxyethyl)thio)acetamide-NPEG11-triazole-[2-Abu5,13;Leu6;Arg28]GpTx-1(1-34) (peptide)” the Nav1.4 Use IC50 (PatchXpress electrophysiology, inhibition of sodium current) [9] was > 10 µM, the Nav1.7 Use IC50 (PatchXpress electrophysiology, inhibition of sodium current) [4] was 0.087 µM and the Nav1.5 Use IC50 (PatchXpress electrophysiology, inhibition of sodium current) [5] was > 10 µM.

With “Biotin-Ahx-[2-Abu5,13;Leu6;Arg28]GpTx-1(1-34) (peptide)” the Nav1.4 Use IC50 (µM), PatchXpress electrophysiology [9] was 27.3 µM, the Nav1.7 Use IC50 (µM), PatchXpress electrophysiology [4] was 0.011 µM and the Nav1.5 Use IC50 (µM), PatchXpress electrophysiology [5] was > 10 µM.

For “[2-Abu5,Leu6,K(ethyl-triazole-PEG11-((2-hydroxyethyl)thio)acetamide)13,Arg28]GpTx-1(1-34) (peptide)”, the Nav1.4 Use IC50 (PatchXpress electrophysiology, inhibition of sodium current) [9] was 9.88 µM, the Nav1.7 Use IC50 (PatchXpress electrophysiology, inhibition of sodium current) [4] was 0.018 µM and the Nav1.5 Use IC50 (PatchXpress electrophysiology, inhibition of sodium current) [5] was > 10 µM.

With “[2-Abu5;Leu6;K(4-Pen)13;Arg28]GpTx-1(1-34) (peptide)” the IWQ Use Nav1.7 IC50 (IonWorks Quattro electrophysiology) [1] was 0.55 µM, the IWQ Use Nav1.5 IC50 (IonWorks Quattro electrophysiology) [2] was 39.7 µM and the IWQ Use Nav1.3 IC50 (IonWorks Quattro electrophysiology) [3] was 0.81 µM. The Nav1.7 Use IC50 (µM), electrophysiology by PatchXpress [4] was 0.002 µM and the Nav1.5 Use IC50 (µM), electrophysiology by PatchXpress [5] was > 10 µM.

In the case of “[Ala5;Leu6,26;Pra12;Arg28]GpTx-1(1-34) (peptide)”, the IWQ Use Nav1.7 IC50 (IonWorks Quattro electrophysiology) [1] is reported as 0.26 µM, the IWQ Use Nav1.5 IC50 (IonWorks Quattro electrophysiology) [2] is reported as > 50 µM and the IWQ Use Nav1.3 IC50 (IonWorks Quattro electrophysiology) [3] is reported as 0.54 µM.

With “[Ala5;Leu6,26;Pra13;Arg28]GpTx-1(1-34) (peptide)” the IWQ Use Nav1.7 IC50 (IonWorks Quattro electrophysiology) [1] was 0.22 µM, the IWQ Use Nav1.5 IC50 (IonWorks Quattro electrophysiology) [2] was 36.4 µM and the IWQ Use Nav1.3 IC50 (IonWorks Quattro electrophysiology) [3] was 0.48 µM. The Nav1.7 Use IC50 (µM), electrophysiology by PatchXpress [4] was 0.009 µM and the Nav1.5 Use IC50 (µM), electrophysiology by PatchXpress [5] was > 10 µM.

Substance “[Ala5;Phe6,13;Arg28]GpTx-1(1-34)-FreeAcid (peptide)” has an IWQ Use Nav1.3 IC50 [8] of 1.2 µM.

For “[Ala5;Phe6;Arg13,28]GpTx-1(1-34)-FreeAcid (peptide)”, the IWQ Use Nav1.7 IC50 [6] was 4.5 µM and the IWQ Use Nav1.3 IC50 [8] was 0.6 µM.

Substance “[Ala5;Phe6;Asp13;Arg28]GpTx-1(1-34)-FreeAcid (peptide)” has an IWQ Use Nav1.3 IC50 [8] of 2.3 µM.

In the case of “[Ala5;Phe6;Gln13;Arg28]GpTx-1(1-34)-FreeAcid (peptide)”, the IWQ Use Nav1.3 IC50 [8] is reported as 1.7 µM.

For “[Ala5;Phe6;Glu10;Atz(PEG3-((2-hydroxyethyl)thio)acetamide)13;Leu26;Arg28]GpTx-1(1-34) (peptide)”, the Nav1.4 Use IC50 (PatchXpress electrophysiology, inhibition of sodium current) [9] was 5.95 µM, the Nav1.7 Use IC50 (PatchXpress electrophysiology, inhibition of sodium current) [4] was 0.013 µM and the Nav1.5 Use IC50 (PatchXpress electrophysiology, inhibition of sodium current) [5] was > 10 µM.

In the case of “[Ala5;Phe6;Glu10;Atz(PEG11-((2-hydroxyethyl)thio)acetamide)13;Leu26;Arg28]GpTx-1(1-34) (peptide)”, the Nav1.4 Use IC50 (PatchXpress electrophysiology, inhibition of sodium current) [9] is reported as > 10 µM, the Nav1.7 Use IC50 (PatchXpress electrophysiology, inhibition of sodium current) [4] is reported as 0.021 µM and the Nav1.5 Use IC50 (PatchXpress electrophysiology, inhibition of sodium current) [5] is reported as > 10 µM.

“[Ala5;Phe6;Glu10;K(Biotin)13;Leu26;Arg28]GpTx-1(1-34) (peptide)” was tested, and the Nav1.4 Use IC50 (µM), PatchXpress electrophysiology [9] was 7.13 µM, the Nav1.7 Use IC50 (µM), PatchXpress electrophysiology [4] was 0.015 µM and the Nav1.5 Use IC50 (µM), PatchXpress electrophysiology [5] was > 10 µM.

For “[Ala5;Phe6;Glu10;Pra13;Leu26;Arg28]GpTx-1(1-34) (peptide)”, the IWQ Use Nav1.7 IC50 (IonWorks Quattro electrophysiology) [1] was 0.54 µM, the IWQ Use Nav1.5 IC50 (IonWorks Quattro electrophysiology) [2] was 32.2 µM and the IWQ Use Nav1.3 IC50 (IonWorks Quattro electrophysiology) [3] was 0.56 µM. It also gave a Nav1.7 Use IC50 (µM), electrophysiology by PatchXpress [4] of 0.012 µM and a Nav1.5 Use IC50 (µM), electrophysiology by PatchXpress [5] of 15.3 µM.

Substance “[Ala5;Phe6;Glu13;Arg28]GpTx-1(1-34)-FreeAcid (peptide)” has an IWQ Use Nav1.3 IC50 [8] of 1.9 µM.

With “[Ala5;Phe6;Gly13;Arg28]GpTx-1(1-34)-FreeAcid (peptide)” the IWQ Use Nav1.3 IC50 [8] was 1.5 µM.

— patent US20160304570A1
